In publication PMC7902612 (2021):

Biological target: GST-BRCA1-N (N-terminal of BRCA1, 1-147 aa) (human, UniProt P38398 1-147)
Experiment: MST

Chain of GST-BRCA1-N (N-terminal of BRCA1, 1-147 aa) (P38398 1-147): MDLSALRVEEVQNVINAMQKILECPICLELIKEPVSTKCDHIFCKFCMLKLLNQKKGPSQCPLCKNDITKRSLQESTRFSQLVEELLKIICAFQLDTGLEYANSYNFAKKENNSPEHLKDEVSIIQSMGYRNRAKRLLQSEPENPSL

Kd: 1340 nM
B1: GFP-BARD1^WT (natural protein)
chain: MPDNRQPRNRQPRIRSGNEPRSAPAMEPDGRGAWAHSRAALDRLEKLLRCSRCTNILREPVCLGGCEHIFCSNCVSDCIGTGCPVCYTPAWIQDLKINRQLDSMIQLCSKLRNLLHDNELSDLKEDKPRKSLFNDAGNKKNSIKMWFSPRSKKVRYVVSKASVQTQPAIKKDASAQQDSYEFVSPSPPADVSERAKKASARSGKKQKKKTLAEINQKWNLEAEKEDGEFDSKEESKQKLVSFCSQPSVISSPQINGEIDLLASGSLTESECFGSLTEVSLPLAEQIESPDTKSRNEVVTPEKVCKNYLTSKKSLPLENNGKRGHHNRLSSPISKRCRTSILSTSGDFVKQTVPSENIPLPECSSPPSCKRKVGGTSGRKNSNMSDEFISLSPGTPPSTLSSSSYRRVMSSPSAMKLLPNMAVKRNHRGETLLHIASIKGDIPSVEYLLQNGSDPNVKDHAGWTPLHEACNHGHLKVVELLLQHKALVNTTGYQNDSPLHDAAKNGHVDIVKLLLSYGASRNAVNIFGLRPVDYTDDESMKSLLLLPEKNESSSASHCSVMNTGQRRDGPLVLIGSGLSSEQQKMLSELAVILKAKKYTEFDSTVTHVVVPGDAVQSTLKCMLGILNGCWILKFEWVKACLRRKVCEQEEKYEIPEGPRRSRLNREQLLPKLFDGCYFYLWGTFKHHPKDNLIKLVTAGGGQILSRKPKPDSDVTQTINTVAYHARPDSDQRFCTQYIIYEDLCNYHPERVRQGKVWKAPSSWFIDCVMSFELLPLDS
